Experiment [1] concerns the target unfolded HPV16 VLP (baculo-derived HPV16 VLPs in 0.2M carbonate buffer pH9.5) (Human papillomavirus type 16) (UniProt P03101). In words: ELISA, plates coated with VLP in carbonate buffer pH 9.5; antibody stock 35 µg/ml. On the technique in general: In an ELISA, binding on a coated surface is turned into a signal by an enzyme label.
Experiment [2] addresses baculo-derived HPV16 VLPs in PBS (native form) (Human papillomavirus type 16) (UniProt P03101). Description: ELISA, plates coated with baculo-derived HPV16 VLPs in PBS; antibody stock 35 µg/ml.

For the substance HPV16-L1 mAb CAMVIR-1 (antibody), the IgG titer (reciprocal of the highest sample dilution that yielded an OD492 four times that of preimmune sample) (reciprocal dilution) worked out at 80000 in experiment [1] and 16000 in experiment [2].
